The results in this text go back to article PMC3515695 (Nature structural & molecular biology, 2012).

The series deals with the molecule itself. The series can be described thus: SAXS.

B1: full-length Caenorhabditis elegans TDP2 (enzyme, UniProt Q9XWG3 1-362, looked up)
chain: MSNSDDEIQEIEAKRQKMSQEDSEVEIEILDEPEQGKLKNSSMSDEQKLHEFAIITATDEAFAQSILQDVDWDLKKALDVFYGSEAFAEARSAAVMGASSSMASSGAAVMTAEDLKGFEVSVMSWNIDGLDGRSLLTRMKAVAHIVKNVNPDILFLQEVVDRDLAPIDKLQSLYKIYYSNKGCQYYTAILVSKMFDVEKHDVIHFQNSGMYRTLQILEGSIGGLKVFLLNTHLESTREHRPQRCAQFGFCMDKVREIIAQNPGALVFFGGDLNLRDEEVSRVPDGVKDAWEAAGSDNKTKFTWDTFKNDNKQGFHGAKMRFDRLYWSGPLDKVKFTLEGRQRIRSCLCFPSDHWAINATFFA
As a reminder, the stoichiometry N is a count of units in the complex or per binding partner. As to B1, the “stoichiometry N” value came out at 2.
